Results reported in the supplement of paper PMC11246515.
± gives the standard deviation of the averaged measurements.

Assay: total protein half-life in vivo (active degradation + dilution); higher = more stable protein
[1] = E. coli NCM3722 delta-clpP delta-lon delta-hslV, growth: N-lim chemostat, doubling time 6 h
[2] = E. coli NCM3722 delta-clpP, growth: N-lim chemostat, doubling time 6 h
[3] = E. coli NCM3722 delta-hslV, growth: N-lim chemostat, doubling time 6 h
[4] = E. coli NCM3722 delta-lon, growth: N-lim chemostat, doubling time 6 h
[5] = E. coli NCM3722 delta-smpB, growth: N-lim chemostat, doubling time 6 h
[6] = wild type E. coli NCM3722, growth: C-lim chemostat, doubling time 3 h
[7] = wild type E. coli NCM3722, growth: C-lim chemostat, doubling time 6 h
[8] = wild type E. coli NCM3722, growth: C-lim chemostat, doubling time 12 h
[9] = wild type E. coli NCM3722, growth: N-lim chemostat, doubling time 6 h
[10] = wild type E. coli NCM3722, growth: P-lim chemostat, doubling time 6 h
[11] = wild type E. coli NCM3722, growth: P-lim chemostat, doubling time 12 h
[12] = wild type E. coli NCM3722, growth: N-lim chemostat, doubling time 12 h

Sequence: MLNSFKLSLQYILPKLWLTRLAGWGASKRAGWLTKLVIDLFVKYYKVDMKEAQKPDTASYRTFNEFFVRPLRDEVRPIDTDPNVLVMPADGVISQLGKIEEDKILQAKGHNYSLEALLAGNYLMADLFRNGTFVTTYLSPRDYHRVHMPCNGILREMIYVPGDLFSVNHLTAQNVPNLFARNERVICLFDTEFGPMAQILVGATIVGSIETVWAGTITPPREGIIKRWTWPAGENDGSVALLKGQEMGRFKLGSTVINLFAPGKVNLVEQLESLSVTKIGQPLAVSTETFVTPDAEPAPLPAEEIEAEHDASPLVDDKKDQV [P0A8K1]
- total protein half-life in vivo [1]: 6.31 ± 0.2 h
- total protein half-life in vivo [2]: 6.33 ± 0.086 h
- total protein half-life in vivo [3]: 5.99 ± 0.61 h
- total protein half-life in vivo [4]: 5.79 ± 0.1 h
- total protein half-life in vivo [5]: 6 ± 0.58 h
- total protein half-life in vivo [6]: 2.76 ± 0.4 h
- total protein half-life in vivo [7]: 6.32 ± 0.66 h
- total protein half-life in vivo [8]: 12.8 ± 0.63 h
- total protein half-life in vivo [9]: 6.81 ± 0.24 h
- total protein half-life in vivo [10]: 6.16 ± 0.32 h
- total protein half-life in vivo [11]: 13.3 ± 0.12 h

Sequence: MSRRVATITLNPAYDLVGFCPEIERGEVNLVKTTGLHAAGKGINVAKVLKDLGIDVTVGGFLGKDNQDGFQQLFSELGIANRFQVVQGRTRINVKLTEKDGEVTDFNFSGFEVTPADWERFVTDSLSWLGQFDMVCVSGSLPSGVSPEAFTDWMTRLRSQCPCIIFDSSREALVAGLKAAPWLVKPNRRELEIWAGRKLPEMKDVIEAAHALREQGIAHVVISLGAEGALWVNASGEWIAKPPSVDVVSTVGAGDSMVGGLIYGLLMRESSEHTLRLATAVAALAVSQSNVGITDRPQLAAMMARVDLQPFN [P0AEW9]
- total protein half-life in vivo [1]: 5.41 ± 0.1 h
- total protein half-life in vivo [2]: 6.29 ± 0.82 h
- total protein half-life in vivo [3]: 6.11 ± 0.88 h
- total protein half-life in vivo [4]: 5.57 ± 1.3 h
- total protein half-life in vivo [5]: 5.34 ± 0.068 h
- total protein half-life in vivo [6]: 3.11 ± 0.06 h
- total protein half-life in vivo [7]: 7.05 ± 0.084 h
- total protein half-life in vivo [8]: 12.2 ± 0.77 h
- total protein half-life in vivo [9]: 5.61 ± 0.2 h
- total protein half-life in vivo [12]: 10.74 ± 0.098 h
- total protein half-life in vivo [10]: 6.22 ± 0.24 h
- total protein half-life in vivo [11]: 13.5 ± 2.4 h

Sequence: MTRLTLALDVMGGDFGPSVTVPAALQALNSNSQLTLLLVGNSDAITPLLAKADFEQRSRLQIIPAQSVIASDARPSQAIRASRGSSMRVALELVKEGRAQACVSAGNTGALMGLAKLLLKPLEGIERPALVTVLPHQQKGKTVVLDLGANVDCDSTMLVQFAIMGSVLAEEVVEIPNPRVALLNIGEEEVKGLDSIRDASAVLKTIPSINYIGYLEANELLTGKTDVLVCDGFTGNVTLKTMEGVVRMFLSLLKSQGEGKKRSWWLLLLKRWLQKSLTRRFSHLNPDQYNGACLLGLRGTVIKSHGAANQRAFAVAIEQAVQAVQRQVPQRIAARLESVYPAGFELLDGGKSGTLR
- total protein half-life in vivo [2]: 6.24 ± 1.2 h
- total protein half-life in vivo [3]: 5.82 ± 0.97 h
- total protein half-life in vivo [5]: 5.36 ± 0.15 h
- total protein half-life in vivo [6]: 2.67 ± 0.076 h
- total protein half-life in vivo [7]: 5.52 ± 0.33 h
- total protein half-life in vivo [8]: 10.8 ± 1.9 h
- total protein half-life in vivo [9]: 5.32 ± 0.21 h
- total protein half-life in vivo [12]: 9.51 ± 0.53 h
- total protein half-life in vivo [10]: 5.34 ± 0.72 h
- total protein half-life in vivo [11]: 8.85 ± 1.9 h

Sequence: MLKKCLPLLLLCTAPVFAKPVLTVYTYDSFAADWGPGPVVKKAFEADCNCELKLVALEDGVSLLNRLRMEGKNSKADVVLGLDNNLLDAASKTGLFAKSGVAADAVNVPGGWNNDTFVPFDYGYFAFVYDKNKLKNPPQSLKELVESDQNWRVIYQDPRTSTPGLGLLLWMQKVYGDDAPQAWQKLAKKTVTVTKGWSEAYGLFLKGESDLVLSYTTSPAYHILEEKKDNYAAANFSEGHYLQVEVAARTAASKQPELAQKFLQFMVSPAFQNAIPTGNWMYPVANVTLPAGFEKLTKPATTLEFTPAEVAAQRQAWISEWQRAVSR
- total protein half-life in vivo [1]: 4.4 ± 0.16 h
- total protein half-life in vivo [2]: 5.26 ± 0.44 h
- total protein half-life in vivo [3]: 6.48 ± 0.38 h
- total protein half-life in vivo [4]: 5.82 ± 0.072 h
- total protein half-life in vivo [5]: 6.33 ± 0.42 h
- total protein half-life in vivo [6]: 3.19 ± 0.21 h
- total protein half-life in vivo [7]: 6.11 ± 0.24 h
- total protein half-life in vivo [8]: 11 ± 0.89 h
- total protein half-life in vivo [9]: 6.3 ± 0.13 h
- total protein half-life in vivo [12]: 14 ± 2.2 h
- total protein half-life in vivo [10]: 5.65 ± 0.23 h
- total protein half-life in vivo [11]: 12.9 ± 0.7 h

Sequence: MFENITAAPADPILGLADLFRADERPGKINLGIGVYKDETGKTPVLTSVKKAEQYLLENETTKNYLGIDGIPEFGRCTQELLFGKGSALINDKRARTAQTPGGTGALRVAADFLAKNTSVKRVWVSNPSWPNHKSVFNSAGLEVREYAYYDAENHTLDFDALINSLNEAQAGDVVLFHGCCHNPTGIDPTLEQWQTLAQLSVEKGWLPLFDFAYQGFARGLEEDAEGLRAFAAMHKELIVASSYSKNFGLYNERVGACTLVAADSETVDRAFSQMKAAIRANYSNPPAHGASVVATILSNDALRAIWEQELTDMRQRIQRMRQLFVNTLQEKGANRDFSFIIKQNGMFSFSGLTKEQVLRLREEFGVYAVASGRVNVAGMTPDNMAPLCEAIVAVL
- total protein half-life in vivo [1]: 4.59 ± 0.58 h
- total protein half-life in vivo [2]: 4.02 ± 0.34 h
- total protein half-life in vivo [3]: 3.88 ± 0.059 h
- total protein half-life in vivo [4]: 4.44 ± 0.22 h
- total protein half-life in vivo [5]: 3.789 ± 0.034 h
- total protein half-life in vivo [6]: 3.16 ± 0.23 h
- total protein half-life in vivo [7]: 5.555 ± 0.041 h
- total protein half-life in vivo [8]: 10.29 ± 0.024 h
- total protein half-life in vivo [9]: 3.86 ± 0.14 h
- total protein half-life in vivo [12]: 5.97 ± 0.14 h
- total protein half-life in vivo [10]: 5.69 ± 0.19 h
- total protein half-life in vivo [11]: 11.84 ± 0.03 h

Sequence: MPIHDKSPRPQEFAAVDLGSNSFHMVIARVVDGAMQIIGRLKQRVHLADGLGPDNMLSEEAMTRGLNCLSLFAERLQGFSPASVCIVGTHTLRQALNATDFLKRAEKVIPYPIEIISGNEEARLIFMGVEHTQPEKGRKLVIDIGGGSTELVIGENFEPILVESRRMGCVSFAQLYFPGGVINKENFQRARMAAAQKLETLTWQFRIQGWNVAMGASGTIKAAHEVLMEMGEKDGIITPERLEKLVKEVLRHRNFASLSLPGLSEERKTVFVPGLAILCGVFDALAIRELRLSDGALREGVLYEMEGRFRHQDVRSRTASSLANQYHIDSEQARRVLDTTMQMYEQWREQQPKLAHPQLEALLRWAAMLHEVGLNINHSGLHRHSAYILQNSDLPGFNQEQQLMMATLVRYHRKAIKLDDLPRFTLFKKKQFLPLIQLLRLGVLLNNQRQATTTPPTLTLITDDSHWTLRFPHDWFSQNALVLLDLEKEQEYWEGVAGWRLKIEEESTPEIAA [P0AFL6]
- total protein half-life in vivo [1]: 5.76 ± 0.2 h
- total protein half-life in vivo [2]: 5.22 ± 0.12 h
- total protein half-life in vivo [3]: 3.78 ± 0.22 h
- total protein half-life in vivo [4]: 3.95 ± 0.21 h
- total protein half-life in vivo [5]: 3.68 ± 0.057 h
- total protein half-life in vivo [6]: 2.45 ± 0.086 h
- total protein half-life in vivo [7]: 4.69 ± 0.06 h
- total protein half-life in vivo [8]: 6.58 ± 0.48 h
- total protein half-life in vivo [9]: 3.83 ± 0.3 h
- total protein half-life in vivo [12]: 5.86 ± 0.01 h
- total protein half-life in vivo [10]: 3.96 ± 0.56 h
- total protein half-life in vivo [11]: 6.77 ± 0.37 h
